Residue numbers refer to the chain shown, from its start.

This note sets out measurements from patent US20170327571A1 (BEIJING BETTERMAB BIOTECHNOLOGY, published 2017).

T1: huIL17-his (human IL17 with C-terminal His-tag) (human (homo sapiens), UniProt Q16552 24-155)
T1 sequence: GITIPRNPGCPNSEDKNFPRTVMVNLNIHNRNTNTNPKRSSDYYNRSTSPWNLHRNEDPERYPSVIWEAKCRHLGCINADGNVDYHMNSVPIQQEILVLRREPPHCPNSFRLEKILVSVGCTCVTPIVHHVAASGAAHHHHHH

T2: Macaca fascicularis IL17 (mfIL17) (Macaca fascicularis, UniProt Q16552 24-155 (human entry), limits assumed)
T2 chain: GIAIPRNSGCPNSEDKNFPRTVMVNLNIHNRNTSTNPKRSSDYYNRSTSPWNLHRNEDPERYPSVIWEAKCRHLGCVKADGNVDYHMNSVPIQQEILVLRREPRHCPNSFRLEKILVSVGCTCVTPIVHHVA

T3: mouse (Mus musculus) IL17 (moIL17) (mouse (Mus musculus), UniProt Q62386 26-158)
T3 construct: also called mIL17; mouse IL17
T3 sequence: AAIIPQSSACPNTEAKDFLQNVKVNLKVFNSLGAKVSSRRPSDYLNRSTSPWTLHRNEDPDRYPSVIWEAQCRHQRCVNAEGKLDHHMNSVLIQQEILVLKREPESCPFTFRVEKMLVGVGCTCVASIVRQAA

T4: Macaca mulatta IL17 (mmIL17) (Macaca mulatta, UniProt Q16552 24-155 (human entry), limits assumed)
T4 chain: T2 chain with S8P, N17T, S34N, K78N

B1: anti-IL17 monoclonal antibody 9GA3 (antibody, V domains shown)
VH: EVQLVESGGGLVQPGGSLRLSCAASGITMDDYWMNWVRQAPGKGLEWVAAINQDGNEKYYVGSVKGRFTISRDNAKNSLYLQMNSLRVEDTAVYYCVRDYYDLISDYYIHYWYFDLWGRGTLVTVSS
VL: DIQMTQSPSSLSASVGDRVTITCRASQNVHNRLTWYQQKPGKAPKLLIYGASNLESGVPSRFSGSGSGTDFTLTISSLQPEDFATYYCQQYNGSPTTFGQGTKVEIK
notes: Recombinant intact antibody
B2: anti-IL17 monoclonal antibody 9GC2 (antibody, V domains shown)
VH: B1 VH with I27F, M29I, D31N, L103V
VL: B1 VL
notes: Recombinant intact antibody
B3: anti-IL17 monoclonal antibody 9GC5 (antibody, V domains shown)
VH: B1 VH with I27M, T28S, D30S, N56D
VL: B1 VL
notes: Recombinant intact antibody
B4: Ixekizumab (antibody, V domains shown)
VH: QVQLVQSGAEVKKPGSSVKVSCKASGYSFTDYHIHWVRQAPGQGLEWMGVINPMYGTTDYNQRFKGRVTITADESTSTAYMELSSLRSEDTAVYYCARYDYFTGTGVYWGQGTLVTVSS
VL: DIVMTQTPLSLSVTPGQPASISCRSSRSLVHSRGNTYLHWYLQKPGQSPQLLIYKVSNRFIGVPDRFSGSGSGTDFTLKISRVEAEDVGVYYCSQSTHLPFTFGQGTKLEIK
B5: control antibody Secukinumab (antibody, V domains shown)
VH: B1 VH with I27F, M29F, D30S, D31N, N56S, L103I, I104L, S105T
VL: not shown

For one assay, the target named is T1, huIL17-his (human IL17 with C-terminal …). In words: cell-based or functional assay.
With B1, the “IC50 of inhibiting IL17-induced release of IL6 by HDFa cells (2 nM IL17-His)” value was found to be 0.12 nM.
Regarding B2, the “IC50 of inhibiting IL17-induced release of IL6 by HDFa cells (2 nM IL17-His)” value was found to be 0.22 nM.
B3: the “IC50 of inhibiting IL17-induced release of IL6 by HDFa cells (2 nM IL17-His)” value amounted to 0.07 nM.

A further assay addresses T2, Macaca fascicularis IL17 (mfIL17). In words: ELISA, coated IL17 1 ug/ml, HRP-anti-human IgG. (In general: ELISA stands for enzyme-linked immunosorbent assay.)
Protocol: (§1) Four kinds of prepared IL17 (huIL17, mIL17, mmIL17, and mfIL17) were used to coat 96-well ELISA plates overnight at 4° C. (1 μg/ml, 100 μl/well). A blocking solution (2% milk powder-PBST) was added, and the plates were incubated at 37° C. for 1 h. […] Then, the plates were washed four times with PBST. Then, HRP-anti-human IgG (a secondary antibody) was added, and allowed to incubate at 37° C. for 1 h. Then, the plates were washed four times with PBST. An OPD developing solution was added to develop for 5-10 min. Then, 1M H₂SO₄ was added to terminate the development.
Regarding B4, the binding result is on record as “binds”.
Consider B1, for which the binding result is listed as “binds”.
As for B2, the binding result is listed as “binds”.
With B3, the binding result is reported as “binds”.

A further assay addresses T3, mouse (Mus musculus) IL17 (moIL17). In words: ELISA, coated IL17 1 ug/ml, HRP-anti-human IgG.
Protocol: as §1
Consider B4, for which the binding result is given as “no binding”.
Still for that read-out and setting: for B1 the value was “no binding”; for B5, “no binding”.
As for B2, the binding result is listed as “no binding”.
Turning to B3, the binding result is on record as “no binding”.

The target of the next assay is T4, Macaca mulatta IL17 (mmIL17). The assay is described as follows: ELISA, coated IL17 1 ug/ml, HRP-anti-human IgG.
Protocol: as §1
For the molecule B4, the binding result is “binds”.
On the same count and under the same terms, with B1 the entry was “binds”; with B2, “binds”; with B3, “binds”.
